{
  "source": "paper doi:10.1101/2025.09.24.678339",
  "key": {"[1]": {"target": "DNMT3A2 wild type, full-length, purified (human)", "experiment": "SEC"}, "[2]": {"target": "DNMT3A2 wild type, full-length, purified (human)", "experiment": "SEC + other: mass photometry"}, "[3]": {"target": "DNMT3A2 L859F/R882H, full-length, purified (human)", "experiment": "SEC"}, "[4]": {"target": "DNMT3A2 D876A, full-length, purified (human)", "experiment": "SEC"}, "[5]": {"target": "DNMT3A2 D876A, full-length, purified (human)", "experiment": "SEC + other: mass photometry"}, "[6]": {"target": "DNMT3A2 L859F/D876A/R882H, full-length, purified (human)", "experiment": "SEC"}, "[7]": {"target": "DNMT3A2 R882H, full-length, purified (human)", "experiment": "SEC"}, "[8]": {"target": "DNMT3A2 D876A/R882H, full-length, purified (human)", "experiment": "SEC"}},
  "data": [
    {"substance": "DNMT3A2 wild type, full-length, purified (enzyme)", "values": [
      {"measurement": "stoichiometry N", "setting": "[1]", "result": 4},
      {"measurement": "stoichiometry N", "setting": "[2]", "result": 4}
    ]},
    {"substance": "DNMT3A2 L859F/R882H, full-length, purified (enzyme)", "values": [
      {"measurement": "stoichiometry N", "setting": "[3]", "result": 4}
    ]},
    {"substance": "DNMT3A2 D876A, full-length, purified (enzyme)", "values": [
      {"measurement": "stoichiometry N", "setting": "[4]", "result": 2},
      {"measurement": "stoichiometry N", "setting": "[5]", "result": 2}
    ]},
    {"substance": "DNMT3A2 L859F/D876A/R882H, full-length, purified (enzyme)", "values": [
      {"measurement": "stoichiometry N", "setting": "[6]", "result": 2}
    ]},
    {"substance": "DNMT3A2 R882H, full-length, purified (enzyme)", "values": [
      {"measurement": "stoichiometry N", "setting": "[7]", "result": 4}
    ]},
    {"substance": "DNMT3A2 D876A/R882H, full-length, purified (enzyme)", "values": [
      {"measurement": "stoichiometry N", "setting": "[8]", "result": 2}
    ]}
  ]
}
